In article PMC4057808, “Molecular characterization of Clonorchis sinensis secretory myoglobin: Delineating its role in anti-oxidative survival” (Parasites & Vectors, 2014):

Tested on: COc1ccccc1O
Test: purified protein
Conditions: H2O2 (0.2 mM in methods, ~20 μM in table note), 50 mM sodium phosphate pH 7.0, 20 °C, guaiacol varied 0.08-2.5 mM as printed

Question: How did the Km turn out when “rCsMb (CsMb, Clonorchis sinensis myoglobin) (Clonorchis sinensis)” was run?
Answer: 81 mM
